Measurements from publication PMC4911631.

What was measured:
[1] = molecular target: PRX1, recombinant (Chlamydomonas reinhardtii)
[2] = molecular target: PRX1, recombinant (Chlamydomonas reinhardtii); remark: listed apart in the source

Substance	maximal electron transfer rate to PRX1 at saturating Ca2+ against WT CRX (Supplementary Fig. 1b) [1] [fold]	reduction of PRX1 by CRX (NADPH oxidation) without Ca2+ (EGTA added) against with Ca2+ [2] [fold]
calredoxin (CRX) Lys263Ile, recombinant (enzyme)	3	
calredoxin (CRX), wild type, recombinant (enzyme)		10
